Patent US6723841
Bridge positions count the residues as written; N and C are the ends. Ends that are not written are not given here.

Experiments:
Assay in all cases: cell-based or functional assay
[1] = target: human CRF1 receptor (human) (UniProt P34998)
[2] = target: T1, human CRF2α receptor (human) (UniProt Q13324)
T1 sequence: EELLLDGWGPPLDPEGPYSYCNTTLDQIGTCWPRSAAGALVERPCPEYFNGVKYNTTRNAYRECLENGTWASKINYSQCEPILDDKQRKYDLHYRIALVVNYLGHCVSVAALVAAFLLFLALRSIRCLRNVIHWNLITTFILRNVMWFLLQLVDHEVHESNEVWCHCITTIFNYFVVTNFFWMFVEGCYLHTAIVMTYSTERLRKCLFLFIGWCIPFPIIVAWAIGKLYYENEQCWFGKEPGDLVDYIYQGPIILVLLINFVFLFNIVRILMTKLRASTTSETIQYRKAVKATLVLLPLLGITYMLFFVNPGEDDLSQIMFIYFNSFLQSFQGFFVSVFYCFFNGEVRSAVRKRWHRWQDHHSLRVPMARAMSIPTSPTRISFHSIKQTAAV

rat CRF2β receptor (rat) = target: rat CRF2β receptor (rat)

Sequence of human CRF1 receptor (human) (P34998 24-415): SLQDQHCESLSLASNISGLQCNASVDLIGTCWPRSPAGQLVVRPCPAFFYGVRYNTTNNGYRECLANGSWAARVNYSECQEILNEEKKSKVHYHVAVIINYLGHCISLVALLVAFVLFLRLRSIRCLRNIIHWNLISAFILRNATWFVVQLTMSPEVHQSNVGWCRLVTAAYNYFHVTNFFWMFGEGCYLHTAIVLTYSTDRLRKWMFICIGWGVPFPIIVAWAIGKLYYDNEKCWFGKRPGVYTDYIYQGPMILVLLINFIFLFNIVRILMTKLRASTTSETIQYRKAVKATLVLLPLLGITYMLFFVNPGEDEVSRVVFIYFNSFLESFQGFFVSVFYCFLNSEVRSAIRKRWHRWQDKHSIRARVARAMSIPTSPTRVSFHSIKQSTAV

| Binder | EC50 of adenylate cyclase stimulation (cAMP) [1] | EC50 of adenylate cyclase stimulation (cAMP) [2] | EC50 of adenylate cyclase stimulation (cAMP) (rat CRF2β receptor (rat)) |
| --- | --- | --- | --- |
| SQEPPISLDLTFHLLREVLEMTKADQLAQQAHSNRKLLDIA (peptide, UniProt P01142 148-188, looked up, ends and bridges not checked) [ovine CRF] | 10 nM | 80 nM | – |
| SQEPPISLDLTFHLLREVLEMTKADQLAQQAHNNRKLLDIA (peptide, UniProt Q95MI6 148-188, looked up) [bovine CRF] | 30 nM | 100 nM | – |
| SQEPPISLDLTFHLLREVLEMTKADQLAQQAHNNRKLLDIA-OH (peptide, UniProt Q95MI6 148-188, looked up) [deamidated bovine CRF] | 1000 nM | > 1000 nM | – |
| ISLDLTFHLLREVLEMARAEQLAQQAHS (peptide, UniProt P06850 159-186, looked up) [r/hCRF(6-33)] | > 1000 nM | > 1000 nM | – |
| FHLLREVLEMARAEQLAQQAHSNRKLMEII (peptide, UniProt P06850 165-194, looked up, d-Phe (position not given)) [d-Phe r/hCRF(12-41)] | > 1000 nM | > 1000 nM | – |
| HSDAVFTDNYTRLRKQMAVKKYLNSILN (peptide, UniProt P01282 125-152, looked up, species assumed, ends and bridges not checked) [VIP] | > 1000 nM | > 1000 nM | – |
| CYFQNCPRG-NH2 (peptide, UniProt P01185 20-28, looked up, species assumed, disulfide 1-6; ends not checked) [AVP] | > 1000 nM | > 1000 nM | – |
| YADAIFTNSYRKVLGQLSARKLLQDIMSRQQGESNQERGARARL (peptide, UniProt P01286 32-75, looked up, ends and bridges not checked) [hGRF] | > 1000 nM | > 1000 nM | – |
| SEEPPISLDLTFHLLREVLEMARAEQLAQQAHSNRKLMEII (peptide, UniProt P06850 154-194, looked up) [rat/human CRF] | 4 nM | 20 nM | 1 nM |
| QGPPISIDLSLELLRKMIEIEKQEKEKQQAANNRLLLDTI (peptide, UniProt P01144 1-40, looked up) [Sauvagine] | 3 nM | 0.5 nM | 0.4 nM |
